In IntAct's records for PubMed 20935634:

B1: FAS-associated death domain protein (Homo sapiens), Q13158 (parent)
chain: MDPFLVLLHSVSSSLSSSELTELKFLCLGRVGKRKLERVQSGLDLFSMLLEQNDLEPGHTELLRELLASLRRHDLLRRVDDFEAGAAAGAAPGEEDLCAAFNVICDNVGKDWRRLARQLKVSDTKIDSIEDRYPRNLTERVRESLRIWKNTEKENATVAHLVGALRSCQMNLVADLVQEVQQARDLQNRSGAMSPMSWNSDASTSEAS

Variants of: B1
Settings: with FAS
For L172K, the “effect of a mutation on the interaction” value was “disrupting interaction”.
With D175K the “effect of a mutation on the interaction” value was “disrupting interaction”.

Variants of: B1
Settings: with FAS
Remark: another data set of the same source
In the case of L172E, the “effect of a mutation on the interaction” value is reported as “disrupting interaction”.
For K153E, the “effect of a mutation on the interaction” value was “decreasing interaction”.
